Consider one molecule from patent publication US20190330333A1 (KAO, published 2019).

The target of one test is T1, active GIP, GIP(1-42).
T1 construct: The assay was built on a Human (total) GIP ELISA kit
T1 peptide: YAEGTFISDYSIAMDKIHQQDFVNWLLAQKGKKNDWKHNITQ
Description: sandwich ELISA, anti-total GIP mAb capture, biotinylated antibody at 1 ug/mL as detection, GIP 8.2 to 2000 pg/mL. How it is done: (§1) The reactivity between the monoclonal antibody prepared in Production Example 1 and active GIP was confirmed by ELISA. The amino group of the anti-active GIP monoclonal antibody was biotinylated with NH2 group biotinylation kit (manufactured by Dojindo Laboratories). ELISA was performed using the produced biotinylated anti-active GIP monoclonal antibody at 1 μg/mL instead of a detection antibody, GIP detection antibody (biotinylated anti-total GIP monoclonal antibody), included in Human (total) GIP ELISA kit (manufactured by EMD Millipore Corporation). A […] dilution series of GIP(1-42) or GIP(3-42) was prepared in 6 steps (8.2 to 2000 pg/mL) with a 2000 pg/mL solution as the highest concentration. By using an anti-total GIP monoclonal antibody (included in Human GIP (total) ELISA kit manufactured by EMD Millipore Corporation) as a capture antibody, the biotinylated anti-active GIP monoclonal antibody as a detection antibody, and a peroxidase-streptavidin conjugate for detection, sandwich ELISA was conducted to prepare a calibration curve with GIP concentration on the X-axis and 450 nm-590 nm absorbance on the Y-axis (FIG. 1).
On the technique in general: An ELISA detects its analyte on a solid surface through an enzyme-linked reagent.

The target in test [1] is T2, PEGylated N-terminus 15 amino acids of active GIP (GIP(1-15)), antigen (1) for measurement (also: PEGylated, position not given here).
T2 construct: Immobilized on the ELISA plate; The assay antigen carries no KLH; only the immunogen was KLH-linked; also called PEGylated GIP(1-15)
T2 peptide: YAEGTFISDYSIAMD
The experiment in a line: ELISA, immobilized peptide antigen, hybridoma culture supernatant. The protocol:
(§2) The reaction between the hybridoma culture supernatant and the antigen (1) and (2) for measurement was evaluated by ELISA using immobilized antigen (1) and (2), and hybridomas that are positive for the antigen (1) and negative for the antigen (2) were selected as anti-active GIP monoclonal antibody-producing hybridomas.
(§3) Antibody-producing hybridoma was cloned by culturing the hybridomas obtained above through a limiting dilution method to obtain single colonies, and single colony-forming wells were subjected to ELISA again to establish 9B9H5-B9 line, which produces an antibody that is positive for the antigen (1) and negative for the antigen (2) (WO 2016/104439).

The target of test [2] is T3, PEGylated N-terminus 13 amino acids of inactive GIP (GIP(3-15)), antigen (2) for measurement (also: PEGylated, position not given here).
T3 construct: Immobilized on the ELISA plate; also called PEGylated GIP(3-15)
T3 peptide: EGTFISDYSIAMD
The test is described as above. How it is done: as §2, §3

In a further test the target is T4, inactive GIP, GIP(3-42).
T4 peptide: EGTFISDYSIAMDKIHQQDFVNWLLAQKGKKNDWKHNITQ
The experiment in a line: sandwich ELISA, anti-total GIP mAb capture, biotinylated antibody at 1 ug/mL as detection. The protocol:
as §1

Where no end group is shown, it is not given here.

B1: anti-active GIP monoclonal antibody produced by hybridoma 9B9H5-B9 line (Production Example 1) (antibody, V domains shown)
VH: QVQLQQPGAELVKPGASVKLSCKASGYTFTSFWMHWVIQRPGQGLEWIGEMNPSDGRTHFNEKFKTKATLTIDTSSNTAYMELNSLTSEDSAVYYCARRMEDWGQGTLVTVSA
VL: DIKMTQSPSSMYASLGERVTITCKASQDINSYLGWFQQKPGKSPKTLIYGANRLVDGVPSRFSGSGSGQDYSLTISSLEYDDMGIYYCLQYDEFPLTFGAGTKLELKR
notes: Mouse (BALB/c) hybridoma monoclonal antibody; Culture supernatant was used in the screening and cloning ELISA; also called anti-active GIP antibody
B1: the binding result in the test with active GIP, GIP(1-42) is recorded as “binds”; in test [1], “binds”; in test [2], “no binding”; with inactive GIP, GIP(3-42), “no binding”.
